Paper PMC7781312 (bioRxiv, 2021)
Non-standard residues stand in square brackets, D forms with d. Primed or numbered codes have the meaning given here. No end group written: not given here. PEG6′ = PEG spacer between stem peptide and Lys-biotin; Biotin′ = not defined here

Legend:
[1] = target: T1, biotinylated SARS-CoV/SARS-CoV-2 S stem helix peptide (SARS-CoV-2 / SARS-CoV, identical …, UniProt P0DTC2); test: BLI
T1 chain: SFKEELDKYFKNHTS[PEG6′]K-{Biotin′}

[2] = target: T2, biotinylated OC43 S stem helix peptide (HCoV-OC43 (Q696P8), UniProt Q696P8); test: BLI
T2 chain: DFKEELDQWFKNQTS[PEG6′]K-{Biotin′}

[3] = target: T3, biotinylated mouse hepatitis virus S stem helix peptide (Murine hepatitis virus A59 (P11224), UniProt P11224); test: BLI
T3 chain: DFKEELDKWFKNQTS[PEG6′]K-{Biotin′}

[4] = target: T4, biotinylated HKU4 S stem helix peptide (Bat coronavirus HKU4 (A3EX94), UniProt A3EX94); test: BLI
T4 chain: DFKDELEEFFKNVTS[PEG6′]K-{Biotin′}

[5] = target: T5, biotinylated MERS-CoV S stem helix peptide (MERS-CoV EMC/2012 (AFS88936), UniProt K0BRG7); test: BLI
T5 chain: DFQDELDEFFKNVST[PEG6′]K-{Biotin′}

[6] = target: T6, biotinylated HKU5 S stem helix peptide (Bat coronavirus HKU5 (A3EXD0), UniProt A3EXD0); test: BLI
T6 chain: DFKEELEEFFKNVSS[PEG6′]K-{Biotin′}

[7] = target: T7, MERS-CoV S stem helix peptide, residues 1230-1240 (crystallised) (MERS-CoV (EMC/2012 numbering), UniProt K9N5Q8); test: crystal structure
T7 chain: DFQDELDEFFK

[8] = target: T8, SARS-CoV/SARS-CoV-2 S stem helix peptide (crystallised) (SARS-CoV-2 / SARS-CoV, identical …, UniProt P0DTC2); test: crystal structure
T8 chain: SFKEELDKYFKNHTS

[9] = target: T9, MERS-CoV S stem helix peptide, residues 1230-1244 (crystallised) (MERS-CoV, UniProt K9N5Q8); test: crystal structure
T9 chain: DFQDELDEFFKNVST

[10] = target: T10, HKU4 S stem helix peptide, residues 1231-1245 (crystallised) (bat coronavirus HKU4, UniProt A3EX94); test: crystal structure
T10 chain: DFKDELEEFFKNVTS

Measured: binding result

B1: B6 monoclonal antibody (recombinant IgG with human constant regions) (antibody, V domains shown)
VH: EVQLQQSGPVLVKPGASVRMSCKASGYTITDYYLNWVKQSHGKSLEWLGVLNPYSGGSLYSQTFKGKATLTVDRSSSTAYLELNSLTSEDSAVYYCARQLGRGNGLDYWGQGTSVTVSS
VL: NIMMTQSPSSLAVSAGEKVTMSCKSSQSVLHSSDQKNYLAWYQQKPGQSPKLLIYWASTRESGVPDRFTGSGSGTDFTLTISSVQAEDLAVYFCHQYLSSYTFGGGTKLEIK
binds: [1] | [2] | [3] | [4] | [5] | [6]

B2: B6 Fab fragment (Fab, V domains shown)
VH: EVQLQQSGPVLVKPGASVRMSCKASGYTITDYYLNWVKQSHGKSLEWLGVLNPYSGGSLYSQTFKGKATLTVDRSSSTAYLELNSLTSEDSAVYYCARQLGRGNGLDYWGQGTSVTVSS
VL: NIMMTQSPSSLAVSAGEKVTMSCKSSQSVLHSSDQKNYLAWYQQKPGQSPKLLIYWASTRESGVPDRFTGSGSGTDFTLTISSVQAEDLAVYFCHQYLSSYTFGGGTKLEIK
binds: all assays above
